# In the nanobody polyreactivity screen of Harvey et al. (2022):
# Experiment: yeast display, Sf9 membrane polyspecificity reagent, FACS + sequencing; frameworks hold sequencing errors
# Procedure, shortened: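 Genes from sorted yeast were amplified by colony PCR, read by MiSeq 2 × 250 sequencing and filtered on CDR length. These cells carried a synthetic nanobody library in Saccharomyces cerevisiae BJ5465 and were sorted by FACS into low and high (top ~1%) gates on anti-HA and streptavidin fluorescence. Polyreactivity is labelled according to the gate of origin.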
row,Sequence,polyreactivity (PSR sort gate)
1,QVQLVESGGGLVQAGGSLRLSCAASGGTFSPYYMGWYRQAPGKEREFVASITGSGGSTYYADSVKGRFTISRGNAKNTVYVQMNSLKPEDTAVYYCAAQCYWTYWPYLLRLYDYWGQGTQVTVSS,low polyreactivity
2,QVQLVESGGGLVQAGGSLRLSCAASGGTFSQYAMGWYRQAPGKERELVARISRRGGSTSYADSVKGRFTISRDNAKNTVYLQMNSLKPEDTAVYYCAKDAPSVYPGRFGNTGGYAYDYWGQGTQVTVSS,high polyreactivity
3,QVQLVESGGGLVQAGGSLRLSCAASGGTFSRNVMGCYRPAPGKERELVSAISRRGSSTYYADSVKGRFTISRDNAKNTVFLQMNSLKPEDTAVYYCARDQFTGADEAGDDYWGQGTQVTVSS,high polyreactivity
4,QVQLVESGGGLVQAGGSLRLSCAASGGTFSSYAMGWYRPAPGKERELVADITRRGGSTYYADSVKGRFTISRDNAKNTVYLQMNSLKPEDTAVYYCAKDYFRRGLWGFSIYGYWGQGTQVTVSS,high polyreactivity
5,QVQLVESGGGLVQAGGSLRLSCAASGGTFSVYAMGWYRQAPGKEREFVASITYGGGITYYADSVKGRFTISRDNAKNTVYLQMNSLKPEDTAVYYCAVDRRVLWYDMDYWGQGTQVTVSS,high polyreactivity
6,QVQLVESGGGLVQAGGSLRLSCAASGGTFSYNTMGWYRQAPGKERELVAVITFSGGSTYYADSVKGRFTISRDNAKNTVYLQMNSLKPEDTAVYYCNARSYPRWLRYDYWGQGTQVTVSS,low polyreactivity
7,QVQLVESGGGLVQAGGSLRLSCAASGGTFSYYAMGWYRQAPGKERELVAAITYSGDRTYYADSVKGRFTISRDNAKNTVYLQMNSLKPEDTAVYYCNAVRGSWYGYYYWGQGTQVTVSS,high polyreactivity
8,QVQLVESGGGLVQAGGSLRLSCAASGGTFVSYAMGWYRQAPGKERELVVAITYSGGSTYYADSVKGRFTISRDNAKNTVYLQMNRLKPEDTAVYYCAAPKFSYFSYSPRGKFKYEYWGQGTQVTVSS,low polyreactivity
9,QVQLVESGGGLVQAGGSLRLSCAASGGTFVTNAMGWYRQAPGKERELVAAISYDGGITYYADSVKGRFTISRDNAKNTVYLQMNSLKPEDTAVYYCAAYRRYRNWFNYWGQGTQVTVSS,high polyreactivity
10,QVQLVESGGGLVQAGGSLRLSCAASGGTFVTYTMAWYRQAPGKEREFVAAISRSGGSTYYADSVKGRFTISRDNAKNTVYLQMNSLKPEDTAVYYCATRGRYYGPGYDYWGQGTQVTVSS,high polyreactivity
11,QVQLVESGGGLVQAGGSLRLSCAASGGTFWKNAMGWYRQAPGKERELVAAIRSSSGNTYYADSVKGRFTISRDNAKNTVYLQMNSLKPEDTAVYSCARRYYDYGYDYYWGQGTQVTVSS,high polyreactivity
12,QVQLVESGGGLVQAGGSLRLSCAASGGTFWLYTMGWYRQAPGKERELVAAITKSGGSTYYADSVKGRFTISRDNAKNTVYLQMNSLKPEDTAVYYCAARYSVYRDGYYWGQGTQVTVSS,high polyreactivity
13,QVQLVESGGGLVQAGGSLRLSCAASGGTFWYYAMGWDRQAPGKERELVAAINWSGDSTYADSVKGRFTISRDNAKNTVYLQMNSLKPEDTAVYYCNADVWYYRMDYWGQGTQVTVSS,low polyreactivity
14,QVQLVESGGGLVQAGGSLRLSCAASGGTFWYYAMGWYRQAPGKERELVASISRGGSTNYADSVKGRFTISRDNAKNTVYLQMNSLKPEDTAVYYCNAGLRVGPRRYVDYEYDYWGQGTQVTVSS,low polyreactivity
15,QVQLVESGGGLVQAGGSLRLSCAASGGTFYANAMGWSRQAPGKEREFVASISRSVGSTYYADSVKGRFTISRDNAKNTVYLQMNSLKPEDTAVYYCAARRYSRPRYTYYSWGQGTQVTVSS,high polyreactivity
16,QVQLVESGGGLVQAGGSLRLSCAASGGTFYAYAMGWYRQAPGKERELVAAISRSGSTYYADSVKGRFTISRDNAKNTVYLQMNSLKPEDTAVYYCAARRARRDPVGYVYAKYGYWGQGTQVTVSS,high polyreactivity
17,QVQLVESGGGLVQAGGSLRLSCAASGGTFYAYAMGWYRQAPGKERELVAAITNSGGSTYYADSVKGRFTISRDNAKNTVYLQMNSLKPEDTAVYYCARRRSYRDNYWGQGTQVTVSS,high polyreactivity
18,QVQLVESGGGLVQAGGSLRLSCAASGGTFYNYAMGWYRQAPGKERELVAAITYSGGITYYADSVKGRFTISRDNAKNTVYLQMNSLKPEDTAVYYCNTDGINSSVVVVDDYWMDYWGQGTQVTVSS,low polyreactivity
19,QVQLVESGGGLVQAGGSLRLSCAASGGTFYTNVMGGYTQAPGKERELVAAITRSGGSTHYADSVKGRFTISRDNAKNTFYLQMNSLKPEDTEVYYCALGSPYYDGMDYWGQGTQVTVSS,low polyreactivity
20,QVQLVESGGGLVQAGGSLRLSCAASGGTFYVKDMAWYRQAPWNERDLVATITYSGTSTYYADSVKGRFTISRDNAKNTVYLQMKSLKPEDTAVYYCATDVLLYFEPVNLDYWGQGTQVTVSS,low polyreactivity
21,QVQLVESGGGLVQAGGSLRLSCAASGGTFYVNAMGWYRQAPGKERELVAAISYRGGRTYYADSVKGRFTISRDNAKNTVYVQMNSVKPEDTAVYYCAAEYSYDHSTGYDYWGQGTQVTVSS,low polyreactivity
22,QVQLVESGGGLVQAGGSLRLSCAASGGTFYVYAMGWYRQAPGKERELVAAISTSDGITYYADSVKGRFTLSRDNAKNTVYLQMNSLKPEDTAVYYCAAEFFSSFTYAYDYWGQGTQVTVSS,high polyreactivity

row,Sequence,polyreactivity (PSR sort gate)
1,QVQLVESGGGLVQAGGSLRLSCAASGGTFYYNTMGWYRQAPGQERELVAAIRSTGGSTYDADSVKGRFTISRDNAKNTVYLQMNSLKPEDTAVYYCAKKVYTRRRGSDYWGQGTQVTVSS,high polyreactivity
2,QVQLVESGGGLVQAGGSLRLSCAASGGTFYYYAMGWYRQAPGKERELVAAITKNGGSTYYADSVKGRFTISRDNAKNTVYLQMNSLKPEDTAVYYCAASRFGRMDYWGQGTQVTVSS,high polyreactivity
3,QVQLVESGGGLVQAGGSLRLSCAASGGTIENYAMGWYRQAPGKERELVAAISSGGSTNYADSVKGRFTISRDNAKNTVYLQMNSLKPEDTAVYYCATRGIWKKVPYYYWGQGTQVTVSS,low polyreactivity
4,QVQLVESGGGLVQAGGSLRLSCAASGGTIYLNAMGWYRQAPRKERELVAGITWGGGRTYYADSVKGRFTISRDNAKNTVYLQMNSLKPEDTAVYYCASGAWRGPYSGYYYWGQGTQVTVSS,low polyreactivity
5,QVQLVESGGGLVQAGGSLRLSCAASGGTLEVYAMGWYRQAPGKEREFVAAISWSGGRTYYADSVKGRFTISRDNAKNTVYLQMNSLKPEDTAVYYCATRDRAGYYYWGQGTQVTVSS,high polyreactivity
6,QVQLVESGGGLVQAGGSLRLSCAASGGTLFQNAMGWYRQAPGKERELVATIRVSGGITYYADSVKGRFTISRDNAKNTVYLQMNSLKPEDTAVYYCAKDSADSRAVGDVLTFDYWGQGTQVTVSS,low polyreactivity
7,QVQLVESGGGLVQAGGSLRLSCAASGGTLGLNAMGRTRQAPGKEREFVAAINRSGGSTRYADSVKGRFTISRDNAKNTVYLQMISLKPEDTAVYYCNAASWTFQTTPKYDYWGQGTQVTVSS,high polyreactivity
8,QVQLVESGGGLVQAGGSLRLSCAASGGTLRGYAMGWYRQAPGKERELVASITYTSGSTYYADSVKGRFTISRDNAKNTVYLQINSLKPEDTAVYYCAAVARTVPSYSYNYWGQGTKVTVSS,high polyreactivity
9,QVQLVESGGGLVQAGGSLRLSCAASGGTLSYYAMGWYRQAPGKERELVAGISRRGGSTYYADSVKGRFTISRDNAKNTVYLQMNSLNPEDTAVYYCAADSNRHYYYWGQGTQVTVSS,high polyreactivity
10,QVQLVESGGGLVQAGGSLRLSCAASGGTLYIYAMGWDRQAPGKERELVAAIRGRGGSTYADSVKGRCTISRDNAKNTVYLQMNSLKPEDTAVYYCAASGIRYWLPYDYWGQGTQVTVSS,high polyreactivity
11,QVQLVESGGGLVQAGGSLRLSCAASGGTRFTNAMGWYRQAPGKEREMVAAISWRGGRTYYADSVKGRFTISRDNAKNTVYLQMNSQKPEDTAVYYCAAASAAGYDYWGQGTQVTVSS,low polyreactivity
12,QVQLVESGGGLVQAGGSLRLSCAASGGTYVGYSMGWYRQAPGKERELDATITRRGGNTYYADSVKGRFTISRDNAKNTVYLQMNSLKPEDTAVYYCAARKKGSRVGYDYWGQGTQVTVSS,high polyreactivity
13,QVQLVESGGGLVQAGGSLRLSCAASGGYGMGWYRQAPGKERELVAAISYSGGSTYYADSVKGRFTISRDNAKNTVYLQMNSLKPEDTAVYYCNVLRGSLNGWWPGYDYWGQGTQVTVSS,low polyreactivity
14,QVQLVESGGGLVQAGGSLRLSCAASGHIFDHYAMGWYRQAPGKERELVAAISTSGTSTYYADSVKGRFTISRDNAKNTVYLQMNSLKPEDTAVYYCNAGGGHVGDVRYPYRYWRYNYWGQGTQVTVSS,low polyreactivity
15,QVQLVESGGGLVQAGGSLRLSCAASGHIFFYYTMGWYRQAPGKERELVAGIPIGGSTNYADSVKGRFTISRDNAKNTVYLQMNSLKPVDTAVYYFNVVKYVYIYSFWEYYYWGQGTQVTVSS,low polyreactivity
16,QVQLVESGGGLVQAGGSLRLSCAASGHIFPTNAMGWYRQAPGKERELVAVISESVGSTYYADSVKGRFTISRDNAKNTVYLQMNSLKPEDTAVYYCAVRSRTPRAYYYWGQGTQVTVSS,low polyreactivity
17,QVQLVESGGGLVQAGGSLRLSCAASGHIFYAYAMASYRQAPGKERELVASITYRGVSTYYADSVKARFTISRDNAKNTVYLQMHSLKPEDTAVYYCAAGRSRYLWFGRDFDYWGQGTQVTVSS,low polyreactivity
18,QVQLVESGGGLVQAGGSLRLSCAASGHNFFYYTMVWYRPAPGKERELVAGITIGGSTNYADSVKGRFTISRDNAKNNVYLVMNSLKPEDTAVYYCNVDKYVYIYSYWEYYYWGQGTQVTVSS,low polyreactivity
19,QVQLVESGGGLVQAGGSLRLSCAASGHTFAYNAMGWYRQAPGKEREFVAAITWSTDNTYYADSVKGRFTISRDNAKNTVYLQMNSLKPEDTAVYYCAKDAAESYRYGYWGQGTQVTVSS,low polyreactivity
20,QVQLVESGGGLVQAGGSLRLSCAASGHTFYYKALGWYTQAPGKEREFVATITESGTSTYYADSVKGRCTLSRDNAKNTVYLQMKSLKPEDTAGYYCAAQYWYVGGIALYDYWGQGTQVTVSS,low polyreactivity
21,QVQLVESGGGLVQAGGSLRLSCAASGIFAYYVMGWYRQAPGKERELVADISRGGSTNYADSVKGRFTISRDNAKNTVYLQMISLKPEDSAVYYCNARSYYPWEGYDYWGQGTQVTVSS,low polyreactivity
